Experimental data reported in the RNAGym collection of RNA variant scans (doi:10.1073/pnas.2313332121).
Fewer inactive variants are shown than the library holds.

B1: TPR 5TU (parent)
chain: GGAUCUUCUCGAUCUAACAAAAAAGACAAAUCUGCCACAAAGCUUGAGAGCAUCUUCGGAUGCAGAGGCGGCAGCCUUCGGUGGCGCGAUAGCGCCAACGUUCUCAACUAUGACACGCAAAACGCGUGCUCCGUUGAAUGGAGUUUAUCAUG

Variants of: B1
Test: polymerase ribozyme fitness, log enrichment relative to wild type (log ratio); higher = more active; in vitro selection for triplet polymerase activity
Outline: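 Only genotypes with ≥10 input reads and ≥1 read per output were kept after Illumina sequencing of input and output libraries. These libraries were PCR-built, transcribed mutants of each subunit of a heterodimeric triplet polymerase ribozyme, each put through one triplicate in vitro selection round with frozen incubation at −7 °C, gel excision of extended constructs, streptavidin-bead capture and RT-PCR. Fitness is a logarithmic ratio of genotype enrichment to wild-type enrichment, from inverse-variance-weighted replicate averages, with the logarithm in base 2.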

| Variant | polymerase ribozyme fitness (log ratio) |
| --- | --- |
| GGAUCUUCUCGAUCUAAUAAAAAAGACAAAUCUGCCACAAAGCUUGAGAGCAUCUUCGGAUGCAGAGGCGGCAGCCUUCGGUGGCGCGAUAGCGCUAACGUUCUCAACUAUGACACGCAAAACGCGUGCUCCGUUGAAUGGAGUUUAUCAUG [C18U C96U] | -0.659 |
| GGAUCUUCUCGAUCUAAUAAAAAAGACAAAUCUGCCACAAAGCUUGAGAGCAUCUUCGGAUGCAGAGGCGGCAGCCUUCGGUGGCGCGAUAGCGCCAACGUUCUCAACUAUGACACGCAAAACGCGUGCUACGUUGAAUGGAGUUUAUCAUG [C18U C131A] | -2.6 |
| GGAUCUUCUCGAUCUAAUAAAAAAGACAAAUCUGCCACAAAGCUUGAGAGCAUCUUCGGAUGCAGAGGCGGCAGCCUUCGGUGGCGGGAUAGCGCCAACGUUCUCAACUAUGACACGCAAAACGCGUGCUCCGUUGAAUGGAGUUUAUCAUG [C18U C87G] | ≤ -4.2 |
| GGAUCUUCUCGAUCUAAUAAAAAAGACAAAUCUGCCACAAAGCUUGAGAGCAUCUUCGGAUGCAGAGGCGGCAGCCUUCGGUGGUGCGAUAGCGCCAACGUUCUUAACUAUGACACGCAAAACGCGUGCUCCGUUGAAUGGAGUUUAUCAUG [C18U C85U C105U] | 0.286 |
| GGAUCUUCUCGAUCUAAUAAAAAAGACAAAUCUGCCACAAAGCUUGAGAGUAUCUUCGGAUGCAGAGGCGGCAGCCUUCGGUGGCGCGUUAGCGCAAACGUUCUCAACUAUGACACGCAAAACGCGUGCUCCGUUGAAUGGAGUUUAUCAUG [C18U C51U A89U C96A] | -2.24 |
| GGAUCUUCUCGAUCUAAUAAAAAAGACAAAUCUGCCACAAAGCUUGAGAGCAUCUUCGGAUGCAGAGGCGGCAGCCUUCGGUGGCGCGAUAGUGCCAACGUUCUCAACUAUGACACGCAAAACGCGUGCUCCUUUGAAUGGAGUUUAUCAUG [C18U C93U G133U] | ≤ -4.2 |
| GGAUCUUCUCGAUCUAAUAAAAAAGACAAAUCUGCCACAAAGCUUGAGAGCAUCUUCGGAUGCAGAGGCGGCAGCCUUCGGUGGUGCGAUAGCGCCAACGUUCUCAACUAUGACACGCAAAACGCGUGCUCCGUUGAAUGGAGUUUAUCAUG [C18U C85U] | -0.241 |
| GGAUCUUCUCGAUCUAAUAAAAAAGACAAAUCUGCCACAAAGCUUGAGAGCAUCUUCGGAUGCAGAGGCGGCAGCCUUCGGUGGGGCGAUAGCGCCAACGUUCUCAACUAUGACACGCAAAACGCGUGCUCCGUUGAAUGGAGUUUAUCAUG [C18U C85G] | -2.3 |
| GGAUCUUCUCGAUCUAAUAAAAAAGACAAAUCUGCCACAAAGCUUGAGAGCAUUUUCGGAUGCAGAGGCGGCAGCCUUCGGUGGCGCGAUAGGGCCAACGUUCUCAACUAUGACACGCCAAACGCGUGCUCCGUUGAAUGGAGUUUAUCAUG [C18U C54U C93G A119C] | ≤ -4.2 |
| GGAUCUUCUCGAUCUAAUAAAAAAGACAAAUCUGCCACAAAGCUUGAGAGCAUCUUCGGAUGCAGAGGCGGCAGCCUUCGGUGGCGCGAUAGCGCGAACGUUCUCAACUAUGACACGCAAAACGCGCGCUCCGUUGAAUGGAAUUUAUCAUG [C18U C96G U127C G143A] | -4.17 |
| GGAUCUUCUCGAUCUAAUAAAAAAGACAAAUCUGCCACAAAGCUUGAGAGCAUCUUCGGAUGCAGAGGCGGCAGCCUUCGGUGGCGCGAUAGUGCCAACGUUCUCAACUAUGACACGCAAAACGCGUGCUCCGUUGAAUGGAGUUUAUCAUG [C18U C93U] | -1.73 |
| GGAUCUUCUCGAUCUAAUAAAAAAGACAAAUCUGCCACAAAGCUUGAGAGCAUCUUCGGAUGCAGAGGCGGCAGCCUUCGGUGGCGCGAUAGGGCCAACGUUCUCAACUAUGACACGCAAAACGCGUGCUCCGUUGAAUGGAGUUUAUCAUG [C18U C93G] | -3.19 |
| GGAUCUUCUCGAUCUAAUAAAAAAGACAAAUCUGCCACAAAGCUUGAGAGCAUCUUUGGAUGCAGAGGCGGCAGCCUUCGGUGGCACGAUAGCGCCAACGUUCUCAACUAUGACACGCAAAACGCGUGCUCCGUUGAAUGGAGUUUAUCAUG [C18U C57U G86A] | -1.67 |
| GGAUCUUCUCGAUCUAAUAAAAAAGACAAAUCUGCCACAAAGCUUGAGAGCAUAUUCGGAUGCGGAGGCGGCAGCCUUCGGUCGCGCGAUAGCGCCAACGUUCUCAACUAUGACACGCUAAACGCGUGCUCCGUUGAAUGGAGUUUCUCAUG [C18U C54A A64G G83C A119U A147C] | ≤ -4.2 |
| GGAUCUUCUCGAUCUAAUAAAAAAGACAAAUCUGCCACAAAGCUUGAGAGUAACUUCGGAUGCAGAGGCGGCAGCCUUCGGUAGCGCGAUAGCGCCAACGUUCUCAACUAUGACACGCAAAACGCGUGCUCCGUUGAAUGGAGUUUAUCAUG [C18U C51U U53A G83A] | -3.04 |
| GGAUCUUCUCGAUCUAAUAAAAAAGACAAAUCUGCCACAAAGCUUGAGAGCAUCUUCGGAUGCAGAGGCGGCAGCCUUCGGUGGCGCGAUAGUGCCAAUGUUCUCAACUAUGACACGCAAAACGCGUGCUCCGUUGAAUGGAGUUUAUCGUG [C18U C93U C99U A150G] | -2.85 |
| GGAUCUUCUCGAUCUAAUAAAAAAGACAAAUCUGCCACAAAGCUUGAGAGCAUCUUGGGAAGCAGAGGCGGCAGCCUUCGGUGGCGUGUUAGCGCCAACGUUCUCAACUAUGACAUGGAAAGCGCGUGCUCCGUUGAAAGGAGUUUAUCAUG [C18U C57G U61A C87U A89U C116U C118G A122G U139A] | ≤ -4.2 |
| GGAUCUUCUCGAUCUAAUAAAAAAGACAAAUCUGCCACAAAGCUUGAGAGCAUCUUCGGAUGCAGAGGCGGCAGCCUUCGGUGGGGCGAUAGCGCCAACGUUCUCAACUAUGACACGCAAAACGCGUGCUCCGUUGAAUGGAGUAUAUCAUG [C18U C85G U145A] | -1.19 |
| GGAUCUUCUCGAUCUAAUAAAAAAGACAAAUCUGCCACAAAGCUUGAGAGUAUCUUCGGAUGCAGAGGCGGCAGCCUUCGGUGGCGCGAUAGCGCAAACGUUCUCAACUAUGACACGCAAAACGCCUGCUCUGUUGAAUGGAGUUUAUCAUG [C18U C51U C96A G126C C132U] | -2.04 |
